Laboratory results published in patent US20090048196A1 (University of California, published 2009).

Target: N-terminal alkaline phosphatase-tagged RBP (AP-RBP fusion protein) (human, UniProt P02753 19-201)
Assay: AP-RBP binding to live COS-1 cells transfected with bovine STRA6, AP activity read-out
Method: The cells were then washed twice with PBS⁺ and fixed in fresh 2% formaldehyde in PBS⁺ at room temperature for 10 min. After 3 more PBS washes, the cells were heated in PBS for 1 h at 65° C. […] The reaction was stopped by washing cells twice with PBS containing 1 mM CaCl₂. The cells were then lysed in 200 μl of cold PBS containing 1% Triton X-100 and protease inhibitors per well. The cell lysates were centrifuged at 3,000 g at 4° C. for 5 min. The supernatants were removed and heated at 65° C. for 1 h. Twenty microliters of the heated lysate were mixed with 200 μl of pNPP (Sigma) and incubated at 37° C. for 1 h for the AP color reaction. The reactions were stopped by adding 50 μl 3 M NaOH and were transferred to a 96-well plate for reading in a microplate reader at 405 nm.

Kd: 59 nM
B1: bovine STRA6 (wild-type) (receptor)
chain: MSTQAAGNQTSSGATDSEDSYDSWYIDEPQGGQELQPEGLVPSCQPNVPPSLYHTCLAVLSILVLFLLAMLVRRRQLWPRCGHGRPGLPSPVDFLTGDRPRTVPAAVFMVLFSSLCLLLPTEDPLPFLSLASPPGRDGEAETSRGPWKILALLYYPALYYPLAACATVRHGAAHLLGSLLSWAHLGVQVWQRAECPESPKIYKYYSLLASLPLLLGLGFLSLWYPVQLVRSFGHGAATGSKGLQSSYSEEYLRTLLCQKKLKSSSHTCKRGFASQAWMYFRHSVYIPQQGFRLPLKLVLSVTLTGTAIYQVALLLLVGVVPTIQKVRAGITTDVSYLLAGFGIVLSEDRQEVVELVKHHLWALEVCYISALVLSCLLTFLMLVHSLVTHRTNLRALHRGGALDIGPLTQSPRPSRQAIFCWMSFTAYQTAFTCLGLLVQQILFFLGTLTLAFLVFMPMLHGRNLLLLHYLKSSWPFWLTLALAVTLQNAAAHWAFLDTHHGRPGLTNRRALYAATFLLFPVNVLVGTMVAAWRVLLSALYNAVHLGRMDLSLLPLRAATLDPGYHTYCNFLRMEASQSHPAATAFCALLLRTQRPKPRATPQDGLRLGEEEEGIQLLQTKDLVAKGAGPRARQGRARWGLAYTLLHNPALQAFRKTALPGARPNGAQP
notes: also called RBP receptor; WT
